One molecule from patent US20210063414A1, “METHODS FOR PREVENTING AND/OR TREATING BONE LOSS CONDITIONS BY MODULATING IRISIN” (Dana-Farber Cancer Institute, Inc., priority 2018, published 2021) can be followed below.

For this assay, the system named is sclerostin. Kind of assay: Irisin injection in mice: sclerostin mRNA in osteocyte-enriched bones and plasma sclerostin protein (ELISA). Type of assay: in vivo. As to conditions: irisin IP daily for 6 days. Here is the method: 8 weeks old mice were injected daily with indicated dose of irisin for 6 days. […] were collected and treated with collagenase to yield osteocyte-enriched bones. Sclerostin mRNA level from osteocyte-enriched tibia was analyzed by qPCR (FIG. 7A). Cyclophilin was used as a house-keeping gene. Plasma was collected to analyze the circulating sclerostin protein level by ELISA assay (FIG. 7B). Data are represented as mean±SEM. For FIG. 7A and FIG. 7B, n=5 animals/group. * indicates p<0.05, and *** indicates p<0.001.
Certain materials and methods were used to generate the results described herein. For example, the data shown in FIG. 1A resulted from MLO-Y4 (an osteocyte-like cell line) cells treated with the indicated concentration of irisin and hydrogen peroxide for 4 hours. Cells were stained with Hoechst 33342 (ThermoFisher Scientific, catalog number H3570) and Eth-D1 (ThermoFisher Scientific, catalog number E1169) and analyzed to determine the percentage of cell death using ImageJ. […] Co-precipitated irisin was analyzed by immunoblot analysis against flag tag (Sigma Aldrich, catalog number A8592). The data shown in FIGS. 5A and 5B were generated from MLO-Y4 cells treated and analyzed as in the experiments used to generate the data shown in FIG. 2D, except that pre-treatment of 100 nM RGDS (FIG. 5A) or echistatin (R & D Systems Inc., catalog number 3202/100U) (FIG. 5B) for 10 minutes was performed before irisin treatment. […] RNAs were extracted from the cells and the sclerostin mRNA level was analyzed by qPCR (FIG. 6A) or treated and analyzed as in (FIG. 6A), except that pre-treatment of 10 μM RGDS, RGDyK (Selleck, catalog number S7844), or echistatin was performed for 10 minutes before irisin treatment. […] Sclerostin mRNA level was analyzed by qPCR (FIG. 7A). […] Epididymal fats were collected, RNAs were extracted from the tissues, and mRNA levels of the indicated genes were analyzed by qPCR. […]
A general note: In an ELISA, binding on a coated surface is turned into a signal by an enzyme label.

B1: irisin: secreted cleaved form of FNDC5; recombinant human/mouse irisin with C-terminal his tag produced in HEK293 cells (protein)
chain: DSPSAPVNVTVRHLKANSAVVSWDVLEDEVVIGFAISQQKKDVRMLRFIQEVNTTTRSCALWDLEEDTEYIVHVQAISIQGQSPASEPVLFKTPREAEKMASKNKDEVTMKE
modifications: left off: small tags and cut ends
notes: secreted cleaved form of FNDC5; recombinant human/mouse irisin with C-terminal his tag produced in HEK293 cells
B1: the “sclerostin mRNA in osteocyte-enriched bones” value is on record as “stimulated sclerostin mRNA”. Besides, where the note is “ELISA”, the “circulating (plasma) sclerostin protein” value is “significant increase”. Also, the “sclerostin mRNA in osteocyte-enriched bones” value (listed as recombinant irisin) is given as “raised the sclerostin mRNA level”.
